# Paper PMC7139703, “Thiopurine Derivative-Induced Fpg/Nei DNA Glycosylase Inhibition: Structural, Dynamic and Functional Insights” (International Journal of Molecular Sciences, 2020)
# What was measured:
# Assay in all cases: EMSA
# [1] = target: T1, LlFpg (Lactococcus lactis) (UniProt P42371); settings: 8% DMSO, no inhibitor, complex C1 (1:1), N at position 7 of strand 1 = tetrahydrofuran (THF) abasic site analog, opposite C, EMSA: 0.1 nM probe, 25 mM HEPES/NaOH pH 7.5, 150 mM NaCl, 5% glycerol, 0.1 mg/mL BSA, 4 °C, 30 min, 10% native PAGE at 4 °C
# T1 sequence: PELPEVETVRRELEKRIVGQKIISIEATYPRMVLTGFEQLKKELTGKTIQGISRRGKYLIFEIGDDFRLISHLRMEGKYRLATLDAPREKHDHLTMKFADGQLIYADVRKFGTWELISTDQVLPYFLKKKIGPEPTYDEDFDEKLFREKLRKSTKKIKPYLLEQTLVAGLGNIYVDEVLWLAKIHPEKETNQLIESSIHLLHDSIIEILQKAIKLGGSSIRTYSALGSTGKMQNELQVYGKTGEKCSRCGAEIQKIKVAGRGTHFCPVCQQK
# mvNei1 (mimivirus) = settings: N at position 7 of strand 1 = tetrahydrofuran (THF) abasic site analog, opposite C; EMSA: 0.1 nM probe, 25 mM HEPES/NaOH pH 7.5, 150 mM NaCl, 5% glycerol, 0.1 mg/mL BSA, 8% DMSO, 4 °C, 30 min; 10% native PAGE at 4 °C
# [2] = target: ∆hNeil1 (truncated hNeil1) (human) (UniProt Q96FI4); settings: 8% DMSO, no inhibitor, named hNeil1 in the sentence, N at position 7 of strand 1 = tetrahydrofuran (THF) abasic site analog, opposite C, EMSA: 0.1 nM probe, 25 mM HEPES/NaOH pH 7.5, 150 mM NaCl, 5% glycerol, 0.1 mg/mL BSA, 4 °C, 30 min, 10% native PAGE at 4 °C
# ∆hNeil1 (truncated hNeil1) (human), sequence (Q96FI4 whole entry, the tested form may be a part): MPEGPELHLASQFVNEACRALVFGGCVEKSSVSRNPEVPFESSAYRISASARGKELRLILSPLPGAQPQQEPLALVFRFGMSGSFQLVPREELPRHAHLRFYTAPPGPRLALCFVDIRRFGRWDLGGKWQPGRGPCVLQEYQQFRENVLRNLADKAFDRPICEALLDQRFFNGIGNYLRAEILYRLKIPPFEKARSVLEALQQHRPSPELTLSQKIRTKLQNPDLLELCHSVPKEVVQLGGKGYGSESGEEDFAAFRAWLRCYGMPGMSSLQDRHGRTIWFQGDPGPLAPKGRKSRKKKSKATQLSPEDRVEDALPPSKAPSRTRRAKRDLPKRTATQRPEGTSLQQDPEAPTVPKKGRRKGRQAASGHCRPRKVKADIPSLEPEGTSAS
sequence,measurement,setting,value
CTCTTTNTTTCTCG / GCGAGAAACAAAGA [14-mer THF:C],K half,[1],0.25 nM
same,K half,mvNei1 (mimivirus),5 nM
same,K half,[2],7 nM
